How the values were obtained:
CbpE-Jo (S. pneumoniae) = test: confocal fluorescence microscopy of live cells; live pneumococcal cells expressing CbpE-Jo or CbpE-In incubated with exogenous His-GFP-In or PBS, extensive washes; mean maximal GFP intensity of five frames, autofluorescence subtracted
His-Jo (S. pneumoniae) [1] = test: covalent complex formation seen by SDS-PAGE; Jo and In partners at 25 μM, pH 5, 20 °C, 60 min; proportion of complex normalised to 100%
His-Jo (S. pneumoniae) [2] = test: covalent complex formation seen by SDS-PAGE; Jo and In partners at 25 μM, pH 6, 20 °C, 60 min; proportion of complex normalised to 100%
His-Jo (S. pneumoniae) [3] = test: covalent complex formation seen by SDS-PAGE; Jo and In partners at 25 μM, pH 7, 20 °C, 60 min; proportion of complex normalised to 100%
His-Jo (S. pneumoniae) [4] = test: covalent complex formation seen by SDS-PAGE; Jo and In partners at 25 μM, pH 8, 20 °C, 60 min; proportion of complex normalised to 100%
His-Jo (S. pneumoniae) [5] = test: covalent complex formation seen by SDS-PAGE; 10 μM purified His-Jo and His-In, 50 mM Tris pH 8.0, 200 mM NaCl, 20 °C; 90 min; bands quantified with ImageJ
His-Jo (S. pneumoniae) [6] = test: covalent complex formation seen by SDS-PAGE; 10 μM purified His-Jo and His-In, 50 mM Tris pH 8.0, 200 mM NaCl, 20 °C; 180 min; bands quantified with ImageJ
His-Jo (S. pneumoniae) [7] = test: covalent complex formation seen by SDS-PAGE; His-Jo and In co-expressed in E. coli cytoplasm (pETDuet, IPTG 3 h at 37 °C); crude lysate on denaturing SDS-PAGE, Coomassie blue

His-GFP-In (domain or fragment) gave a fluorescence signal of the cells (arbitrary units (AU)) (CbpE-Jo (S. pneumoniae)) of 550.
His-In (domain or fragment) was tested, and the percent of complex reconstituted (His-Jo (S. pneumoniae) [1]) was 18%, the percent of complex reconstituted (His-Jo (S. pneumoniae) [2]) was 90% and the percent of complex reconstituted (His-Jo (S. pneumoniae) [3]) was 100%. The percent of complex reconstituted (His-Jo (S. pneumoniae) [4]) was 100%, the percent of complex reconstituted (His-Jo (S. pneumoniae) [5]) was 60% and the percent of complex reconstituted (His-Jo (S. pneumoniae) [6]) was 100%.
Work on In (domain or fragment) yielded a stoichiometry N (His-Jo (S. pneumoniae) [7]) of 1.

— paper PMC5333627
